From US20220025050A1 (OSE IMMUNOTHERAPEUTICS, published 2022) come the findings set out here.

Experiment [1] concerns the target T1, biotinylated Human PD1 (AcroBiosystems, reference EP-101) (human, UniProt Q15116 25-167, limits assumed, biotinylated).
T1 construct: also called biotinylated recombinant human PD-1; recombinant biotinylated PD1 protein
Briefly: competition ELISA: PD-L2 Fc immobilised, biotinylated PD-1 mixed with the fusion at varied concentration, streptavidin-peroxidase; blocked ligand PD-L2 [following]. The method, then:
(§1) FIG. 8: Competition PD-1/PD-L1 or PD-L2 ELISA assay. […] (D): PD-1/PD-L2 antagonist activity. […] Similar protocol as PD-L1/PD-1 assay was used for revelation. In this experiment, the bifunctional molecule comprises a humanized anti-PD1 antibody having a heavy chain variable domain as disclosed in SEQ ID NO: 24 and a light chain variable domain as disclosed in SEQ ID NO:28.
(§2) Competitive ELISA assay was performed by PD-1:PD-L1 Inhibitor Screening ELISA Assay Pair (AcroBiosystems; USA; reference EP-101). In this assay, recombinant hPDL1 was immobilized on plastic at 2 μg/ml in PBS pH 7.4 buffer. […] Same ELISA protocol was performed to assess PDL2/PD1 antagonist activity by coating PD-L2 Fc recombinant protein (Sinobiological, #10292-H02H).

In experiment [2] the target is T2, recombinant hPD1 (Sino Biologicals, reference 10377-H08H) (human, UniProt Q15116 25-167).
T2 construct: also called Human recombinant PD-1 protein; PD1-His recombinant protein
Nature of the experiment: ELISA: hPD-1 immobilized, anti-human Fc peroxidase.

In experiment [3] the target is T1, biotinylated Human PD1 (AcroBiosystems, …). Briefly: competition ELISA: PD-L1 immobilized, biotinylated PD-1 at fixed concentration, antibody varied. The method, then:
as §1, §2
A general note: ELISA stands for enzyme-linked immunosorbent assay.

T1 sequence (Q15116 25-167 limits assumed): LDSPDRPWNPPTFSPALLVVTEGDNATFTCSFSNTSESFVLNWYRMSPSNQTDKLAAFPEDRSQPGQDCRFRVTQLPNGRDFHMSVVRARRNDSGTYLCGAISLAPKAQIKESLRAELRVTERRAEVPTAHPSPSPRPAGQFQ
T2 sequence (Q15116 25-167 limits assumed): as above

B1: Humanized anti-PD1 (VH SEQ ID NO:24, VL SEQ ID NO:28) VH fusion to Cytokine-protein A (IL-7) (other, not shown: small tags and cut ends)
heavy: QIQLVQSGSELKKPGASVKVSCKASGYTFTHYAMNWVRQAPGQGLEWMGWINTNTGEPTYAQGFTGRFVFSLDTSVSTAYLQISSLKAEDTAVYYCAREREPGMDNWGQGTLVTVSS
VL: DVVMTQSPLSLPVTLGQPASISCRSSQSLVHANTNTYLEWYQQRPGQSPRLLIYKVSNRFSGVPDRFSGSGSGTDFTLKISRVEAEDVGVYYCFQGTHVPNTFGQGTKLEIK
notes: Bifunctional molecule; also called Anti-PD1 fused to Cytokine-protein A (IL-7), VH fusion; anti PD-1 VH IL-7
Regarding B1, the “IC50 (read off the curve)” value in experiment [1] was around 0.7 µg/mL.

B2: Humanized anti-PD1 (VH SEQ ID NO:24, VL SEQ ID NO:28) VH fusion to CD80 (other, not shown: small tags and cut ends)
heavy: QIQLVQSGSELKKPGASVKVSCKASGYTFTHYAMNWVRQAPGQGLEWMGWINTNTGEPTYAQGFTGRFVFSLDTSVSTAYLQISSLKAEDTAVYYCAREREPGMDNWGQGTLVTVSS
VL: DVVMTQSPLSLPVTLGQPASISCRSSQSLVHANTNTYLEWYQQRPGQSPRLLIYKVSNRFSGVPDRFSGSGSGTDFTLKISRVEAEDVGVYYCFQGTHVPNTFGQGTKLEIK
notes: Bifunctional molecule; also called anti PD-1 VH CD80
As for B2, the “IC50 (read off the curve)” value in experiment [1] is around 0.9 µg/mL.

B3: Anti-PD1 Ab alone, no fusion, FIG. 4 / Table 1 (antibody, V domains shown)
VH: QIQLVQSGSELKKPGASVKVSCKASGYTFTHYAMNWVRQAPGQGLEWMGWINTNTGEPTYAQGFTGRFVFSLDTSVSTAYLQISSLKAEDTAVYYCAREREPGMDTWGQGTLVTVSS
VL: DVVMTQSPLSLPVTLGQPASISCRSSQSLVHANTNTYLEWYQQRPGQSPRLLIYKVSNRFSGVPDRFSGSGSGTDFTLKISRVEAEDVGVYYCFQGTHVPNTFGQGTKLEIKR
On to B3, for which the EC50 (in general, the concentration at which the effect is half-maximal) in experiment [2] is 0.00167 µg/mL.

B4: Anti-PD1 Ab alone, no fusion (FIG. 8 / Table 5) (antibody, V domains shown)
VH: QIQLVQSGSELKKPGASVKVSCKASGYTFTHYAMNWVRQAPGQGLEWMGWINTNTGEPTYAQGFTGRFVFSLDTSVSTAYLQISSLKAEDTAVYYCAREREPGMDNWGQGTLVTVSS
VL: DVVMTQSPLSLPVTLGQPASISCRSSQSLVHANTNTYLEWYQQRPGQSPRLLIYKVSNRFSGVPDRFSGSGSGTDFTLKISRVEAEDVGVYYCFQGTHVPNTFGQGTKLEIK
notes: also called anti-PD1 antibody alone
As for B4, the IC50 (commonly the point on the concentration scale where inhibition reaches its midpoint) in experiment [3] was determined as 0.184 µg/mL.
